The values below come from the RNAGym collection of RNA variant scans (doi:10.7554/elife.90254).

The labels stand for the following.
B1: LINE1-full (parent)
chain: UACGUAGGUGGUUUUCCCCUGAUAGUGCUAAGGGGGCCUGGAAGUUUGGACUGGGCAGAGCUCAACACAGCGUGGCAAAGUGGCUGUGGCUAGACUGCCUCUCUGGAUUCCUCGUCACUCAGCAGGGCAUCUCUGAGAGAAAUGCC

The variants in the series derive from B1. Briefly: self-cleavage, relative activity (ratio to wild type); higher = more cleavage; in vitro, sequencing; the parent is a self-cleaving ribozyme.
Turning to UACGUAGGUGGUUUUCCCCUGAUAGUGCUAAGGGGGCCUGGAGGUUUGGACUGGGCAGAGCUCAACACAGCGUGGCAAAGUGGCUGUGGCUAGACUGCCUCUCUGGAUUCCUCGUCACACAGCAGGGCAUCUCUGAGAGAAAUGCC [A43G U119A], the self-cleavage was 1.15.

In the case of UACGUAGGUGGUUUUCCCCUGAUAGUGCUAAGGGGGCCUGGAGGUUUGGACUGGGCAGAGCUCAACACAGCGUGGCAAAGUGGCUGUGGCAAGACUGCCUCUCUGGAUUCCUCGUCACUCAGCAGGGCAUCUCUGAGAGAAAUGCC [A43G U91A], the self-cleavage came to 0.89. Regarding UACGUAGGUGGUUUUCCCCUGAUAGUGCUAAGGGGGCCUGGAGGUUUGGACUGGGCAGAGCUCAACACAGCGUGGCAAAGUGGCUGUGGCUAGACUGCCUCGCUGGAUUCCUCGUCACUCAGCAGGGCAUCUCUGAGAGAAAUGCC [A43G U102G], the self-cleavage was found to be 0.84. The result for UACGUAGGUGGUUUUCCCCUGAUAGUGCUAAGGGGGCCUGGAGGUUUGGACUGGGCAGAGCUCAACACAGCGUGGCAAAGUGGCUGUGGCUAGACUGCCUCCCUGGAUUCCUCGUCACUCAGCAGGGCAUCUCUGAGAGAAAUGCC [A43G U102C] reads 1.13; that for UACGUAGGUGGUUUUCCCCUGAUAGUGCUAAGGGGGCCUGGAGGUUUGGACUGGGCAGAGCUCAACACAGCGUGGCAAAGUGGCUGUGGCUAGACUGCCUCACUGGAUUCCUCGUCACUCAGCAGGGCAUCUCUGAGAGAAAUGCC [A43G U102A], 0.91.

Regarding UACGUAGGUGGUUUUCCCCUGAUAGUGCUAAGGGGGCCUGGAGGUUAGGACUGGGCAGAGCUCAACACAGCGUGGCAAAGUGGCUGUGGCUAGACUGCCUCUCUGGAUUCCUCGUCACUCAGCAGGGCAUCUCUGAGAGAAAUGCC [A43G U47A], the self-cleavage is 0.96. With UACGUAGGUGGUUUUCCCCUGAUAGUGCUAAGGGGGCCUGGAGGUUUGGACUGGGCAGAGCUCAACACAGCGUGGCAAAGUGACUGUGGCUAGACUGCCUCUCUGGAUUCCUCGUCACUCAGCAGGGCAUCUCUGAGAGAAAUGCC [A43G G83A] the figure was 1.03; with UACGUAGGUGGUUUUCCCCUGAUAGUGCUAAGGGGGCCUGGAGGUUUGGACUGGGCAGAGCUCAACACAGCGUGGCAAAGUGGCUGUGGCUAGACUGCCUCUCUGGAUUCCUCGCCACUCAGCAGGGCAUCUCUGAGAGAAAUGCC [A43G U115C], 1.52; with UACGUAGGUGGUUUUCCCCUGAUAGUGCUAAGGGGGCCUGGAGGUUUGGACUGGGCAGAGCUCAACACAGCGUGGCAAAGUGGCUGUGGCUAGACUGCCUCUCUGGAUUCCUCGACACUCAGCAGGGCAUCUCUGAGAGAAAUGCC [A43G U115A], 0.95. The result for UACGUAGGUGGUUUUCCCCUGAUAGUGCUAAGGGGGCCUGGAGGUUUGGACUGGGCAGAGCUCAACACAGCGUGGCAAAGUGGCUGUGGCUAGACUGCCUCUCUGGAUUCCUCGGCACUCAGCAGGGCAUCUCUGAGAGAAAUGCC [A43G U115G] reads 1.02; that for UACGUAGGUGGUUUUCCCCUGAUAGUGCUAAGGGGGCCUGGAGGUUUGGACUGGGCAGAGCUCAACACAGCGUGGCAAAGUGGCUGUGGCUAGACUGCCUCUCUGGAUUCCUCAUCACUCAGCAGGGCAUCUCUGAGAGAAAUGCC [A43G G114A], 1.05; that for UACGUAGGUGGUUUUCCCCUGAUAGUGCUAAGGGGGCCUGGAGGUUUGGACUGGGCAGAGCUCAACACAGCGUGGCAAAGGGGCUGUGGCUAGACUGCCUCUCUGGAUUCCUCGUCACUCAGCAGGGCAUCUCUGAGAGAAAUGCC [A43G U81G], 1.12. Consider UACGUAGGUGGUUUUCCCCUGAUAGUGCUAAGGGGGCCUGGAGGUUUGGACUGGGCAGAGCUCAACACAGCGUGGCAAAGAGGCUGUGGCUAGACUGCCUCUCUGGAUUCCUCGUCACUCAGCAGGGCAUCUCUGAGAGAAAUGCC [A43G U81A], for which the self-cleavage is 1.68. The result for UACGUAGGUGGUUUUCCCCUGAUAGUGCUAAGGGGGCCUGGAGGUUUGGACUGAGCAGAGCUCAACACAGCGUGGCAAAGUGGCUGUGGCUAGACUGCCUCUCUGGAUUCCUCGUCACUCAGCAGGGCAUCUCUGAGAGAAAUGCC [A43G G54A] reads 0.41; that for UACGUAGGUGGUUUUCCCCUGAUAGUGCUAAGGGGGCCUGGAGGGUUGGACUGGGCAGAGCUCAACACAGCGUGGCAAAGUGGCUGUGGCUAGACUGCCUCUCUGGAUUCCUCGUCACUCAGCAGGGCAUCUCUGAGAGAAAUGCC [A43G U45G], 1.53; that for UACGUAGGUGGUUUUCCCCUGAUAGUGCUAAGGGGGCCUGGAGGUUUAGACUGGGCAGAGCUCAACACAGCGUGGCAAAGUGGCUGUGGCUAGACUGCCUCUCUGGAUUCCUCGUCACUCAGCAGGGCAUCUCUGAGAGAAAUGCC [A43G G48A], 1.54.

Consider UACGUAGGUGGUUUUCCCCUGAUAGUGCUAAGGGGGCCUGGAGGUUUGGACUGGGCAGAGCUCAACACAGCGUGGCAAAGUGGCUGUGGCUAGACUGCCUCUCUGGAUUCCUCGUCACUCAGCAGGGCAACUCUGAGAGAAAUGCC [A43G U130A], for which the self-cleavage turned out to be 1.51. For the variant UACGUAGGUGGUUUUCCCCUGAUAGUGCUAAGGGGGCCUGGAGGUUUGGACUGGGCAGAGCUCAACACAGCGUGGCAAAGUGGCUGUGGCUAGACUGCCUCUCUGGAUUCCUCGUCACUCAGCAGGGCACCUCUGAGAGAAAUGCC [A43G U130C], the self-cleavage worked out at 1.2. In the case of UACGUAGGUGGUUUUCCCCUGAUAGUGCUAAGGGGGCCUGGAGGUUUGGACUGGGCAGAGCUCAACACAGCGUGGCAAAGUGGCUGUGGCUAGACUGCCUCUCUGGAUUCCUCGUCACUCAGCAGUGCAUCUCUGAGAGAAAUGCC [A43G G126U], the self-cleavage is 1.28.

For UACGUAGGUGGUUUUCCCCUGAUAGUGCUAAGGGGGCCUGGAGGUUUGGACUGGGCAGAGCUCAACACAGCGUGGCAAAGUGGCUGUGGCUAGACCGCCUCUCUGGAUUCCUCGUCACUCAGCAGGGCAUCUCUGAGAGAAAUGCC [A43G U96C], the self-cleavage was found to be 0.09.

Regarding UACGUAGGUGGUUUUCCCCUGAUAGUGCUAAGGGGGCCUGGAGGUUUGGACUGGGCAGAGCUCAACACAGCGUGUCAAAGUGGCUGUGGCUAGACUGCCUCUCUGGAUUCCUCGUCACUCAGCAGGGCAUCUCUGAGAGAAAUGCC [A43G G75U], the self-cleavage was 0.99.

For the variant UACGUAGGUGGUUUUCCCCUGAUAGUGCUAAGGGGGCCUGGAGGUUUGGACUGGGCAGAACUCAACACAGCGUGGCAAAGUGGCUGUGGCUAGACUGCCUCUCUGGAUUCCUCGUCACUCAGCAGGGCAUCUCUGAGAGAAAUGCC [A43G G60A], the self-cleavage turned out to be 0.04. With UACGUAGGUGGUUUUCCCCUGAUAGUGCUAAGGGGGCCUGGAGGUAUGGACUGGGCAGAGCUCAACACAGCGUGGCAAAGUGGCUGUGGCUAGACUGCCUCUCUGGAUUCCUCGUCACUCAGCAGGGCAUCUCUGAGAGAAAUGCC [A43G U46A], the self-cleavage was 1.17. On to UACGUAGGUGGUUUUCCCCUGAUAGUGCUAAGGGGGCCUGGAGGUUUGGACUGGGCAGAGCUCAACACAGCGUGGCAAAGUGGCUGUGGCUAGACUGCCUCUCUGGAAUCCUCGUCACUCAGCAGGGCAUCUCUGAGAGAAAUGCC [A43G U108A], for which the self-cleavage was found to be 0.71.

As for UACGUAGGUGGUUUUCCCCUGAUAGUGCUAAGGGGGCCUGGAGGUUUGGACUGGGCAGAGCUCAACACAGCGUGGCAAAGUGGCUGUGGCUAGACUGCCUCUCUGGAUUCCUCGUCACUCAGCAGGGCAUCUCUGAGAGAAAUGCA [A43G C146A], the self-cleavage worked out at 1.09. The result for UACGUAGGUGGUUUUCCCCUGAUAGUGCUAAGGGGGCCUGGAGGUUUGGACUGGGCAGAGCACAACACAGCGUGGCAAAGUGGCUGUGGCUAGACUGCCUCUCUGGAUUCCUCGUCACUCAGCAGGGCAUCUCUGAGAGAAAUGCC [A43G U62A] reads 0.1; that for UACGUAGGUGGUUUUCCCCUGAUAGUGCUAAGGGGGCCUGGAGGUUUGGACUGGGCAGAGCUCAACACAGCGUGGCAAAGUGGCUGUGGCUAGACUGCCUCUCUGGAUUCCUCGUCACUCAGCAGGUCAUCUCUGAGAGAAAUGCC [A43G G127U], 1.87; that for UACGUAGGUGGUUUUCCCCUGAUAGUGCUAAGGGGGCCUGGAGGUUUGGACGGGGCAGAGCUCAACACAGCGUGGCAAAGUGGCUGUGGCUAGACUGCCUCUCUGGAUUCCUCGUCACUCAGCAGGGCAUCUCUGAGAGAAAUGCC [A43G U52G], 1.64. Regarding UACGUAGGUGGUUUUCCCCUGAUAGUGCUAAGGGGGCCUGGAGGUUUGGACUGGGCAAAGCUCAACACAGCGUGGCAAAGUGGCUGUGGCUAGACUGCCUCUCUGGAUUCCUCGUCACUCAGCAGGGCAUCUCUGAGAGAAAUGCC [A43G G58A], the self-cleavage stood at 0.05. With UACGUAGGUGGUUUUCCCCUGAUAGUGCUAAGGGGGCCUGGAGGUUUGGACUGGGCAGAGCUCAACACAGCGUGGCAAAGUGGCUGUGUCUAGACUGCCUCUCUGGAUUCCUCGUCACUCAGCAGGGCAUCUCUGAGAGAAAUGCC [A43G G89U] the figure was 0.04; with UACGUAGGUGGUUUUCCCCUGAUAGUGCUAAGGGGGCCUGGAGGUUUGGACUGGGCAGAGCUCAACACAGCGUGGCAAAGUGGCUGUGGCUAGACUGCCUCUCAGGAUUCCUCGUCACUCAGCAGGGCAUCUCUGAGAGAAAUGCC [A43G U104A], 0.42; with UACGUAGGUGGUUUUCCCCUGAUAGUGCUAAGGGGGCCUGGAGGUUUGGACUGGGCAGAGCUCAACACAGCUUGGCAAAGUGGCUGUGGCUAGACUGCCUCUCUGGAUUCCUCGUCACUCAGCAGGGCAUCUCUGAGAGAAAUGCC [A43G G72U], 1.32. The result for UACGUAGGUGGUUUUCCCCUGAUAGUGCUAAGGGGGCCUGGAGGUUUGGACUGGGCAGAGCUCAACACAGCGUGGCAAAGUGGCUGUGGCUAGACUGCCUCUCUGGAUUCCUCGUCACUCAGCAAGGCAUCUCUGAGAGAAAUGCC [A43G G125A] reads 1.24. The result for UACGUAGGUGGUUUUCCCCUGAUAGUGCUAAGGGGGCCUGGAGGUUUGGACUGGGCAGAGCUCAACACAGCGUGGCAAAGUGGCUGUGGCUAGACUGCCUCUCUGGAUUCCUCGUCACUCAGCAUGGCAUCUCUGAGAGAAAUGCC [A43G G125U] reads 1.02; that for UACGUAGGUGGUUUUCCCCUGAUAGUGCUAAGGGGGCCUGGAGGUUUGGACUGGGCAGAGCUCAACACAGCGUGGCAAAGUGGCUGUGGCUAGACUGCCACUCUGGAUUCCUCGUCACUCAGCAGGGCAUCUCUGAGAGAAAUGCC [A43G U100A], 0.89; that for UACGUAGGUGGUUUUCCCCUGAUAGUGCUAAGGGGGCCUGGAGGUUUGGACUGGGCAGAGCUCAACACAGCGGGGCAAAGUGGCUGUGGCUAGACUGCCUCUCUGGAUUCCUCGUCACUCAGCAGGGCAUCUCUGAGAGAAAUGCC [A43G U73G], 1.56. For the variant UACGUAGGUGGUUUUCCCCUGAUAGUGCUAAGGGGGCCUGGAGGUUUGGACUGGGCAGAGCUCAACACAGCGUGGCAAAGUGGCUGUGGCUAUACUGCCUCUCUGGAUUCCUCGUCACUCAGCAGGGCAUCUCUGAGAGAAAUGCC [A43G G93U], the self-cleavage amounted to 0.05. The result for UACGUAGGUGGUUUUCCCCUGAUAGUGCUAAGGGGGCCUGGAGGUUUGGACUGGGCAGAGCUCAACACAGCGUGGCAAAGUGGCUGGGGCUAGACUGCCUCUCUGGAUUCCUCGUCACUCAGCAGGGCAUCUCUGAGAGAAAUGCC [A43G U87G] reads 0.16. With UACGUAGGUGGUUUUCCCCUGAUAGUGCUAAGGGGGCCUGGAGGUUUGGACUGGGCAGAGCUCAACACAGCGUGGCAAAGUGGCUGAGGCUAGACUGCCUCUCUGGAUUCCUCGUCACUCAGCAGGGCAUCUCUGAGAGAAAUGCC [A43G U87A], the self-cleavage is 0.08.
